Test results published in patent US20250026829A1 (published 2025).
Where no end group is shown, it is not given here.

T1: PRAME peptide on HLA-A*24:02 (human)
T1 peptide: PYLGQMINL

T2: PRAME peptide on HLA-A*24:02 (human, not fully specified (residue 6))
T2 peptide: PYLGQMINL


Key:
[1] = target: … (SEQ ID NO: 1) HLA-A*24 complex, reduced form of the peptide (human); test: SPR, soluble TCR over immobilised biotinylated pHLA, equilibrium, 25 C
[2] = target: T1, PRAME peptide on HLA-A*24:02; test: SPR, equilibrium, 25 C; reduced peptide; soluble, with an engineered disulfide between the constant domains
[3] = target: … (SEQ ID NO: 1) HLA-A*24 complex, oxidised form of the peptide (human); test: SPR, soluble TCR over immobilised biotinylated pHLA, equilibrium, 25 C
[4] = target: T2, PRAME peptide on HLA-A*24:02; test: SPR, equilibrium, 25 C; oxidised peptide; soluble, with an engineered disulfide between the constant domains

Binder	Kd [1] [µM]	Kd [2] [µM]	Kd [3] [µM]	Kd [4] [µM]
S5 (TCR) alpha TRAV12-2 CDR3: AVNKGFQKLV beta TRBV6-1 CDR3: ASSEGWGGQPQH	14.5	14.5		
S6 (TCR) alpha TRAV21 CDR3: AVPNPSARQLT beta TRBV7-9 CDR3: ASSLEGQGVEQF	126	126	241	241
S10 (TCR) alpha TRAV27 CDR3: GAIWSTLGRLY beta TRBV5-6 CDR3: SSFKGVNQPQH	53	53	193	193

Now from value to binder:

Kd [1] [µM]	Kd [2] [µM]	Kd [3] [µM]	Kd [4] [µM]	Binder
85	85			S1 (TCR) alpha TRAV24 CDR3: AFISWRSSGDKLT beta TRBV25 CDR3: ASSSPLSGPLASPLH
18.9	18.9			S4 (TCR) alpha TRAV12-2 CDR3: AVNGPNNAGNMLT beta TRBV6-2/3 CDR3: ASSPGGFGQPQH
